Measured values as given in PMC9352680, “A comprehensive thermodynamic model for RNA binding by the Saccharomyces cerevisiae Pumilio protein PUF4”.
Numbering of substitutions follows the chain as printed. Numbers in names are those of the source.

T1: PUF4 RNA-binding domain (Saccharomyces cerevisiae, UniProt P25339 537-888)
T1 sequence: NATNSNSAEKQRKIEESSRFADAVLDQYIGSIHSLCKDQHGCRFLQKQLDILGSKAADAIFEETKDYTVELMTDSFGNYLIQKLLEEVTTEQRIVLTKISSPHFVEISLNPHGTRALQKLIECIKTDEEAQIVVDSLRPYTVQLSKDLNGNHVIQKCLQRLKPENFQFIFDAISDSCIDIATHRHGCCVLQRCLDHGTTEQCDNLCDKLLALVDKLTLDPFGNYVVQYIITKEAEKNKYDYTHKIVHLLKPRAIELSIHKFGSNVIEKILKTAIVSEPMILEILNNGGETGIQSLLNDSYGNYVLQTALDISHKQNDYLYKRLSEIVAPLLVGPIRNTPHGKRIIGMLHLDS

B1: Ie_S2_P4E.1_K4.1_C4.1_H4.1_A4.1_[+7CCCT]_F4.1_T4.1 (ssRNA)
RNA: UUUGAUUAAUAUGAUAUCGUUCUUUCUUGUAUAUCCCUUAUUCUUUCUCGAUAUCAUAUUAAUCUUU
B2: Ie_S2_P4E.1_K4.1_C4.1_H4.1_A4.1_[+7CTCTC]_F4.1_T4.1 (ssRNA)
RNA: UUUGAUUAAUAUGAUAUCGUUCUUUCUUGUAUAUCUCUCUAUUCUUUCUCGAUAUCAUAUUAAUCUUU
B3: Ie_S2_P4E.1_K4.1_C4.1_H4.1_A4.1_F4.1_[+8C]_T4.1 (ssRNA)
RNA: UUUGAUUAAUAUGAUAUCGUUCUUUCUUGUAUAUUCAUUCUUUCUCGAUAUCAUAUUAAUCUUU
B4: Ie_S2_P4E.1_K4.1_C4.1_H4.1_A4.1_F4.1_[+8CC]_T4.1 (ssRNA)
RNA: UUUGAUUAAUAUGAUAUCGUUCUUUCUUGUAUAUUCCAUUCUUUCUCGAUAUCAUAUUAAUCUUU
B5: Ie_S2_P4E.1_K4.1_C4.1_H4.1_A4.1_F4.1_[+8TC]_T4.1 (ssRNA)
RNA: B4 RNA with C36U
B6: Ie_S2_P4E.1_K4.1_C4.1_H4.1_A4.1_F4.1_[+8CTC]_T4.1 (ssRNA)
RNA: UUUGAUUAAUAUGAUAUCGUUCUUUCUUGUAUAUUCUCAUUCUUUCUCGAUAUCAUAUUAAUCUUU
B7: Ie_S2_P4E.1_K4.1_C4.1_H4.1_A4.1_F4.1_[+8TCC]_T4.1 (ssRNA)
RNA: B6 RNA with C36U, U37C
B8: Ie_S2_P4E.1_K4.1_C4.1_H4.1_A4.1_F4.1_[+8CCTC]_T4.1 (ssRNA)
RNA: B1 RNA with C35U, U39C
B9: Ie_S2_P4E.1_K4.1_C4.1_H4.1_A4.1_F4.1_[+8CCCT]_T4.1 (ssRNA)
RNA: B1 RNA with C35U, U38C
B10: Ia_S2_P3E.1_K3.1_C3.1_H3.1_[A4C]_A3.1_F3.1_T3.1 (ssRNA)
RNA: UUUGAUUAAUAUGAUAUCGUUCUUUCUUGUCUAUAUUCUUUCUCGAUAUCAUAUUAAUCUUU
B11: Ib_S2_P3E.1_K3.1_C3.1_H3.1_[T1G]_[G2C]_A3.1_F3.1_T3.1 (ssRNA)
RNA: B10 RNA with U28G, G29C, C31A
B12: Ie_S2_P4E.1_K4.1_C4.1_H4.1_A4.1_F4.1_[+8TCTCT]_T4.1 (ssRNA)
RNA: B2 RNA with C35U
B13: Ie_S2_P4E.1_K4.1_C4.1_H4.1_A4.1_F4.1_[+8CCTCT]_T4.1 (ssRNA)
RNA: B2 RNA with C35U, U36C
B14: Ie_S2_P4E.1_K4.1_C4.1_H4.1_A4.1_F4.1_[+8TTCCT]_T4.1 (ssRNA)
RNA: B2 RNA with C35U, C37U, U38C
B15: Ie_S2_P4E.1_K4.1_C4.1_H4.1_A4.1_F4.1_[+9C]_T4.1 (ssRNA)
RNA: B3 RNA with C36A, A37C
B16: Ie_S2_P4E.1_K4.1_C4.1_H4.1_A4.1_F4.1_[+9T]_T4.1 (ssRNA)
RNA: B3 RNA with C36A, A37U
B17: Ie_S2_P4E.1_K4.1_C4.1_H4.1_A4.1_F4.1_[+9CC]_T4.1 (ssRNA)
RNA: B4 RNA with C36A, A38C
B18: Ie_S2_P4E.1_K4.1_C4.1_H4.1_A4.1_F4.1_[+9TC]_T4.1 (ssRNA)
RNA: B4 RNA with C36A, C37U, A38C
B19: Ie_S2_P4E.1_K4.1_C4.1_H4.1_A4.1_F4.1_[+9CCC]_T4.1 (ssRNA)
RNA: B6 RNA with C36A, U37C, A39C
B20: Ie_S2_P4E.1_K4.1_C4.1_H4.1_A4.1_F4.1_[+9TTC]_T4.1 (ssRNA)
RNA: B6 RNA with C36A, C38U, A39C
B21: Ie_S2_P4E.1_K4.1_C4.1_H4.1_A4.1_F4.1_[+9TTT]_T4.1 (ssRNA)
RNA: B6 RNA with C36A, C38U, A39U
B22: Ib_S2_P3E.1_K3.1_C3.1_H3.1_[T1G]_[G2T]_A3.1_F3.1_T3.1 (ssRNA)
RNA: B10 RNA with U28G, G29U, C31A
B23: Ie_S2_P4E.1_K4.1_C4.1_H4.1_A4.1_F4.1_[+9TCTC]_T4.1 (ssRNA)
RNA: B1 RNA with C35U, C36A, C37U, U38C, A40C
B24: Ie_S2_P4E.1_K4.1_C4.1_H4.1_A4.1_F4.1_[+9CTCTC]_T4.1 (ssRNA)
RNA: B2 RNA with C35U, U36A, A41C
B25: Ie_S2_P4E.1_K4.1_C4.1_H4.1_A4.1_F4.1_[+9TCTCT]_T4.1 (ssRNA)
RNA: B2 RNA with C35U, U36A, C37U, U38C, C39U, U40C, A41U
B26: Ie_S2_P4E.1_K4.1_C4.1_H4.1_A4.1_F4.1_[+9CCTCT]_T4.1 (ssRNA)
RNA: B2 RNA with C35U, U36A, U38C, C39U, U40C, A41U
B27: Ie_S2_P4E.1_K4.1_C4.1_H4.1_A4.1_F4.1_[+9TTCCT]_T4.1 (ssRNA)
RNA: B2 RNA with C35U, U36A, C37U, U40C, A41U
B28: Ie_S2_P4E.1_K4.1_C4.1_H4.1_A4.1_F4.1_[+9CCCTT]_T4.1 (ssRNA)
RNA: B2 RNA with C35U, U36A, U38C, A41U
B29: Ie_S2_P5E.1_K5.1_C5.1_H5.1_[+1CC]_A5.1_F5.1_T5.1 (ssRNA)
RNA: B6 RNA with G29C, U30C, A31G, C36A, C38U
B30: Ie_S2_P5E.1_K5.1_C5.1_H5.1_[+1CCC]_A5.1_F5.1_T5.1 (ssRNA)
RNA: UUUGAUUAAUAUGAUAUCGUUCUUUCUUCCCGUAUUAUUAUUCUUUCUCGAUAUCAUAUUAAUCUUU
B31: Ie_S2_P5E.1_K5.1_C5.1_H5.1_[+1CTC]_A5.1_F5.1_T5.1 (ssRNA)
RNA: B30 RNA with C30U
B32: Ie_S2_P5E.1_K5.1_C5.1_H5.1_[+1TCC]_A5.1_F5.1_T5.1 (ssRNA)
RNA: B30 RNA with C29U
B33: Ib_S2_P3E.1_K3.1_C3.1_H3.1_[T1C]_[G2C]_A3.1_F3.1_T3.1 (ssRNA)
RNA: B10 RNA with U28C, G29C, C31A
B34: Ie_S2_P5E.1_K5.1_C5.1_H5.1_[+1TTC]_A5.1_F5.1_T5.1 (ssRNA)
RNA: B30 RNA with C29U, C30U
B35: Ie_S2_P5E.1_K5.1_C5.1_H5.1_[+1TCT]_A5.1_F5.1_T5.1 (ssRNA)
RNA: B30 RNA with C29U, C31U
B36: Ie_S2_P5E.1_K5.1_C5.1_H5.1_[+1CTT]_A5.1_F5.1_T5.1 (ssRNA)
RNA: B30 RNA with C30U, C31U
B37: Ie_S2_P5E.1_K5.1_C5.1_H5.1_[+1TTT]_A5.1_F5.1_T5.1 (ssRNA)
RNA: B30 RNA with C29U, C30U, C31U
B38: Ie_S2_P5E.1_K5.1_C5.1_H5.1_[+1CTCT]_A5.1_F5.1_T5.1 (ssRNA)
RNA: B2 RNA with G29C, A31C, A33G, C35A, C37U, U38A, C39U
B39: Ie_S2_P5E.1_K5.1_C5.1_H5.1_[+1TCTC]_A5.1_F5.1_T5.1 (ssRNA)
RNA: UUUGAUUAAUAUGAUAUCGUUCUUUCUUUCUCGUAUUAUUAUUCUUUCUCGAUAUCAUAUUAAUCUUU
B40: Ie_S2_P5E.1_K5.1_C5.1_H5.1_[+1CCCT]_A5.1_F5.1_T5.1 (ssRNA)
RNA: B39 RNA with U29C, U31C, C32U
B41: Ie_S2_P5E.1_K5.1_C5.1_H5.1_[+1CTCTC]_A5.1_F5.1_T5.1 (ssRNA)
RNA: UUUGAUUAAUAUGAUAUCGUUCUUUCUUCUCUCGUAUUAUUAUUCUUUCUCGAUAUCAUAUUAAUCUUU
B42: Ie_S2_P5E.1_K5.1_C5.1_H5.1_[+1CCTCT]_A5.1_F5.1_T5.1 (ssRNA)
RNA: B41 RNA with U30C, C31U, U32C, C33U
B43: Ie_S2_P5E.1_K5.1_C5.1_H5.1_[+1CCCTT]_A5.1_F5.1_T5.1 (ssRNA)
RNA: B41 RNA with U30C, C33U
B44: Ib_S2_P3E.1_K3.1_C3.1_H3.1_[T1A]_[G2A]_A3.1_F3.1_T3.1 (ssRNA)
RNA: B10 RNA with U28A, G29A, C31A
B45: Ie_S2_P5E.1_K5.1_C5.1_H5.1_[+2T]_A5.1_F5.1_T5.1 (ssRNA)
RNA: B4 RNA with A31U, U32A, A33U, U35A, C36U, C37U
B46: Ie_S2_P5E.1_K5.1_C5.1_H5.1_[+2CC]_A5.1_F5.1_T5.1 (ssRNA)
RNA: B6 RNA with U30C, A31C, C36A, C38U
B47: Ie_S2_P5E.1_K5.1_C5.1_H5.1_[+2CT]_A5.1_F5.1_T5.1 (ssRNA)
RNA: B6 RNA with U30C, A31U, C36A, C38U
B48: Ie_S2_P5E.1_K5.1_C5.1_H5.1_[+2TT]_A5.1_F5.1_T5.1 (ssRNA)
RNA: B6 RNA with A31U, C36A, C38U
B49: Ie_S2_P5E.1_K5.1_C5.1_H5.1_[+2CTC]_A5.1_F5.1_T5.1 (ssRNA)
RNA: B30 RNA with C29G, C31U, G32C
B50: Ie_S2_P5E.1_K5.1_C5.1_H5.1_[+2TCC]_A5.1_F5.1_T5.1 (ssRNA)
RNA: B30 RNA with C29G, C30U, G32C
B51: Ie_S2_P5E.1_K5.1_C5.1_H5.1_[+2TTC]_A5.1_F5.1_T5.1 (ssRNA)
RNA: B30 RNA with C29G, C30U, C31U, G32C

Target: T1, PUF4 RNA-binding domain
Experiment: Mg; RNA-MaP; 20 mM Na-HEPES pH 7.4, 30 mM KOAc, 0.75 mM MgCl2, 0.1% Tween-20, 5% glycerol, 0.1 mg/mL BSA, 2 mM DTT; 25 C; 0.0125-409.6 nM protein
Conditions: tags: N-His6-TEV cleaved; C-SNAP kept, Cy3B-labelled; label: tethered on chip by stalled RNA polymerase

Row | Binder | Kd
1 | B1 | 10.1 nM
2 | B2 | 9 nM
3 | B3 | 6.81 nM
4 | B4 | 5.04 nM
5 | B5 | 6.93 nM
6 | B6 | 5.23 nM
7 | B7 | 3.54 nM
8 | B8 | 4.56 nM
9 | B9 | 3.71 nM
10 | B10 | 184 nM
11 | B11 | 798 nM
12 | B12 | 3.78 nM
13 | B13 | 4.43 nM
14 | B14 | 3.81 nM
15 | B15 | 1.33 nM
16 | B16 | 0.265 nM
17 | B17 | 0.543 nM
18 | B18 | 0.411 nM
19 | B19 | 0.512 nM
20 | B20 | 0.446 nM
21 | B21 | 0.208 nM
22 | B22 | 15.6 nM
23 | B23 | 0.324 nM
24 | B24 | 0.532 nM
25 | B25 | 0.382 nM
26 | B26 | 0.733 nM

Row | Binder | Kd
27 | B27 | 0.282 nM
28 | B28 | 0.523 nM
29 | B29 | 565 nM
30 | B30 | 178 nM
31 | B31 | 355 nM
32 | B32 | 198 nM
33 | B33 | 495 nM
34 | B34 | 374 nM
35 | B35 | 1.14 nM
36 | B36 | 1.16 nM
37 | B37 | 1.6 nM
38 | B38 | 1.25 nM
39 | B39 | 245 nM
40 | B40 | 1.15 nM
41 | B41 | 204 nM
42 | B42 | 1.23 nM
43 | B43 | 1.2 nM
44 | B44 | 889 nM
45 | B45 | 26 nM
46 | B46 | 679 nM
47 | B47 | 725 nM
48 | B48 | 6.21 nM
49 | B49 | 499 nM
50 | B50 | 22.2 nM
51 | B51 | 6.91 nM
